PMC9076165 (RSC Advances, 2019)
Where two headings read alike, the source gives them in different places. Where a SMILES comes first, the peptide text is derived from it.

Columns and labels:
[1] = Solubility of the peptide in assay buffer / stock solutions; assay type: physicochemical; settings: HK50 buffer (80 mM Hepes pH 7.6, 50 mM KCl), at concentrations equal to or higher than 10 μM
3h34P1 heptapeptide (L) [2] = molecular target: T1, 3h34P1 heptapeptide (L) (synthetic (Ph.D.-7 phage display)); test: tryptophan fluorescence quenching
T1 chain: KNHDWGV

[3] = molecular target: T2, RsmC (rRNA small subunit methyltransferase C) (Escherichia coli (ASKA collection), UniProt P39406 1-343); test: FRET
T2 sequence: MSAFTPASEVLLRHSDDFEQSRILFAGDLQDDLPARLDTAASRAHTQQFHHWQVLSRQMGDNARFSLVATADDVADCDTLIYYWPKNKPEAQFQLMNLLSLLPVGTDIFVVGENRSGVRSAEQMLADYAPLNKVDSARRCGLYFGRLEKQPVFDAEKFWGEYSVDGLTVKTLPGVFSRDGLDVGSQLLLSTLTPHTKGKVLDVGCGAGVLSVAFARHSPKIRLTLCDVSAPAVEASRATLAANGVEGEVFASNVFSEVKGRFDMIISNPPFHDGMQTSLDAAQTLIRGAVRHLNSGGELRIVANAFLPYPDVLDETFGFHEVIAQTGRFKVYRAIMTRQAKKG

3h34P1 heptapeptide (L) [4] = molecular target: T1, 3h34P1 heptapeptide (L); test: tryptophan fluorescence quenching
3h34P1 heptapeptide (L) [5] = molecular target: T1, 3h34P1 heptapeptide (L); test: tryptophan fluorescence quenching
3h34P1 heptapeptide (L) [6] = molecular target: T1, 3h34P1 heptapeptide (L); test: tryptophan fluorescence quenching

Q: For `CC(C)[C@H](NC(=O)CNC(=O)[C@H](Cc1c[nH]c2ccccc12)NC(=O)[C@H](CC(=O)O)NC(=O)[C@H](Cc1c[nH]cn1)NC(=O)[C@H](CC(N)=O)NC(=O)[C@@H](N)CCCCN)C(=O)O` [P1] (H-KNHDWGV-OH), which “Solubility in the buffer used for FRET titrations” value [1] is on record?
A: low solubility

Q: With CCGUCAAGUCAUCAUGGCCC (ssRNA) [3h34] as the molecule, how does the Kd (3h34P1 heptapeptide (L) [2]) read?
A: 18 ± 5 nM

Q: Does CCGUCAAGUCAUCAUGGCCC (ssRNA) [3h34-Cy3] bind [3]?
A: binds

Q: Does GGUGCUGCAUGGCUGUCGG (ssRNA) [5h34] bind (3h34P1 heptapeptide (L) [4])?
A: binds

Q: Does GCCCUGAAAAGGGC (ssRNA) [Control RNA 1] bind (3h34P1 heptapeptide (L) [5])?
A: no binding

Q: Does GAGGCCUUCGGGCCUC (ssRNA) [Control RNA 2] bind (3h34P1 heptapeptide (L) [6])?
A: no binding
